Reference: article PMC9116133

Key:
[1] = biological target: truncated zymogen of histo-aspartic protease (pro-tHAP) (P. falciparum); test: crystal structure
[2] = biological target: truncated zymogen of plasmepsin I (pro-tPMI) (P. falciparum); test: SAXS
[3] = biological target: truncated zymogen of plasmepsin II, wild type (pro-tPMII) (P. falciparum); test: SEC

## truncated zymogen of histo-aspartic protease (pro-tHAP) (enzyme)
[1]
  stoichiometry N: 2

## truncated zymogen of plasmepsin I (pro-tPMI) (enzyme)
[2]
  stoichiometry N: 2

## truncated zymogen of plasmepsin II, wild type (pro-tPMII) (enzyme)
[3]
  stoichiometry N: 2
